Source: publication doi:10.1101/2024.11.16.623948

What was measured:
[1] = biological target: FLAG-Ago1 (Drosophila melanogaster) (UniProt A1Z9J5); assay: filter binding; settings: guide 5' phosphate; RBNS: 20 mM HEPES-KOH pH 7.9, 100 mM KOAc, 3.5 mM Mg(OAc) (magnesium acetate), 0.05% CHAPS, 2 mM DTT, 8% glycerol, BSA, tRNA, 25 C 2 h; filter binding: 25 mM …
PUM2 (human) = biological target: T1, PUM2 (human) (UniProt Q8TB72); assay: RBNS; settings: RBNS: 20 mM HEPES-KOH pH 7.9, 100 mM KOAc, 3.5 mM Mg(OAc) (magnesium acetate), 0.05% CHAPS, 2 mM DTT, 8% glycerol, BSA, tRNA, 25 C 2 h; filter binding: 25 mM …
T1 sequence: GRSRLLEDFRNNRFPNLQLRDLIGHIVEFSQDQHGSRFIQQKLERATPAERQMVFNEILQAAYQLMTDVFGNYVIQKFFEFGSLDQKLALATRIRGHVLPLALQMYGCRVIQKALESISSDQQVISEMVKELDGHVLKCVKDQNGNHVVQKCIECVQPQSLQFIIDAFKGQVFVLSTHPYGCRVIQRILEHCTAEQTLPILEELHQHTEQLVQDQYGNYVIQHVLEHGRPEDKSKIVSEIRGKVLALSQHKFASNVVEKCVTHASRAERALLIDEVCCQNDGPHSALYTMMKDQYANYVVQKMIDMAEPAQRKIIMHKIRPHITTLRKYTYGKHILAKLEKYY

Chain of FLAG-Ago1 (Drosophila melanogaster) (A1Z9J5 entry or part of it): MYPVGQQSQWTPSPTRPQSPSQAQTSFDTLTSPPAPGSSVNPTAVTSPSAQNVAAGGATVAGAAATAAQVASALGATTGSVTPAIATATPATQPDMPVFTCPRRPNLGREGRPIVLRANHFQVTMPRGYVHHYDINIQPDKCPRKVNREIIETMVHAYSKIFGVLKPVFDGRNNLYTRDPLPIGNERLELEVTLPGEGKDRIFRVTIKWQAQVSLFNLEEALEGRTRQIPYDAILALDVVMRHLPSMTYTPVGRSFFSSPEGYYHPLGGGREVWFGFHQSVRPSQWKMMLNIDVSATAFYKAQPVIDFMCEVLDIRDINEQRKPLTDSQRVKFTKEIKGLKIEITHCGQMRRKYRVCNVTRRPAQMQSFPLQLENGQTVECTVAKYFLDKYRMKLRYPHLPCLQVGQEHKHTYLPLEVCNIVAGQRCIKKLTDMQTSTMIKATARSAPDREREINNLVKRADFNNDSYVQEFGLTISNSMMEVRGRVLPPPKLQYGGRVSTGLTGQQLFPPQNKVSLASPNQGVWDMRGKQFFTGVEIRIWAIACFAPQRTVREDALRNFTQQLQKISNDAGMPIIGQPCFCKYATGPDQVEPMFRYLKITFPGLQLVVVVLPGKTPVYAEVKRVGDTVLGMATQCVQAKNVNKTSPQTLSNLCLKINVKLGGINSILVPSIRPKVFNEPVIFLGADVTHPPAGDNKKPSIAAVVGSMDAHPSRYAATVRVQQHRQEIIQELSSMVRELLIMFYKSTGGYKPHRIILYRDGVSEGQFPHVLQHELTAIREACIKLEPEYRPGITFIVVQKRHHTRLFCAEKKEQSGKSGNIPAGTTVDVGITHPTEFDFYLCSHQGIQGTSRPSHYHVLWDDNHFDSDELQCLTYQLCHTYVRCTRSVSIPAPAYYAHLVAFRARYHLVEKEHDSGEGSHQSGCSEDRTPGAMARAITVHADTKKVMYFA

Sequence	Kd [1]	Kd (PUM2 (human))
UGAGGUAGUAGGUUGUAUAGU / AAAAAAAAAAAAUCUACCUCU [let-7 / seed-matching target]	5 pM	–
UGAGGUAGUAGGUUGUAUAGU / ACUAUACAACCUACUACCUCA [let-7 / fully complementary target]	2 pM	–
UGUAUAUA [PUM consensus site]	–	320 pM
